Experimental data published in publication doi:10.1101/805184 (bioRxiv, 2019).

biological target: Snf2 (S. cerevisiae, UniProt P22082 1-1703); test: cryo-EM structure
Sequence (P22082 whole entry): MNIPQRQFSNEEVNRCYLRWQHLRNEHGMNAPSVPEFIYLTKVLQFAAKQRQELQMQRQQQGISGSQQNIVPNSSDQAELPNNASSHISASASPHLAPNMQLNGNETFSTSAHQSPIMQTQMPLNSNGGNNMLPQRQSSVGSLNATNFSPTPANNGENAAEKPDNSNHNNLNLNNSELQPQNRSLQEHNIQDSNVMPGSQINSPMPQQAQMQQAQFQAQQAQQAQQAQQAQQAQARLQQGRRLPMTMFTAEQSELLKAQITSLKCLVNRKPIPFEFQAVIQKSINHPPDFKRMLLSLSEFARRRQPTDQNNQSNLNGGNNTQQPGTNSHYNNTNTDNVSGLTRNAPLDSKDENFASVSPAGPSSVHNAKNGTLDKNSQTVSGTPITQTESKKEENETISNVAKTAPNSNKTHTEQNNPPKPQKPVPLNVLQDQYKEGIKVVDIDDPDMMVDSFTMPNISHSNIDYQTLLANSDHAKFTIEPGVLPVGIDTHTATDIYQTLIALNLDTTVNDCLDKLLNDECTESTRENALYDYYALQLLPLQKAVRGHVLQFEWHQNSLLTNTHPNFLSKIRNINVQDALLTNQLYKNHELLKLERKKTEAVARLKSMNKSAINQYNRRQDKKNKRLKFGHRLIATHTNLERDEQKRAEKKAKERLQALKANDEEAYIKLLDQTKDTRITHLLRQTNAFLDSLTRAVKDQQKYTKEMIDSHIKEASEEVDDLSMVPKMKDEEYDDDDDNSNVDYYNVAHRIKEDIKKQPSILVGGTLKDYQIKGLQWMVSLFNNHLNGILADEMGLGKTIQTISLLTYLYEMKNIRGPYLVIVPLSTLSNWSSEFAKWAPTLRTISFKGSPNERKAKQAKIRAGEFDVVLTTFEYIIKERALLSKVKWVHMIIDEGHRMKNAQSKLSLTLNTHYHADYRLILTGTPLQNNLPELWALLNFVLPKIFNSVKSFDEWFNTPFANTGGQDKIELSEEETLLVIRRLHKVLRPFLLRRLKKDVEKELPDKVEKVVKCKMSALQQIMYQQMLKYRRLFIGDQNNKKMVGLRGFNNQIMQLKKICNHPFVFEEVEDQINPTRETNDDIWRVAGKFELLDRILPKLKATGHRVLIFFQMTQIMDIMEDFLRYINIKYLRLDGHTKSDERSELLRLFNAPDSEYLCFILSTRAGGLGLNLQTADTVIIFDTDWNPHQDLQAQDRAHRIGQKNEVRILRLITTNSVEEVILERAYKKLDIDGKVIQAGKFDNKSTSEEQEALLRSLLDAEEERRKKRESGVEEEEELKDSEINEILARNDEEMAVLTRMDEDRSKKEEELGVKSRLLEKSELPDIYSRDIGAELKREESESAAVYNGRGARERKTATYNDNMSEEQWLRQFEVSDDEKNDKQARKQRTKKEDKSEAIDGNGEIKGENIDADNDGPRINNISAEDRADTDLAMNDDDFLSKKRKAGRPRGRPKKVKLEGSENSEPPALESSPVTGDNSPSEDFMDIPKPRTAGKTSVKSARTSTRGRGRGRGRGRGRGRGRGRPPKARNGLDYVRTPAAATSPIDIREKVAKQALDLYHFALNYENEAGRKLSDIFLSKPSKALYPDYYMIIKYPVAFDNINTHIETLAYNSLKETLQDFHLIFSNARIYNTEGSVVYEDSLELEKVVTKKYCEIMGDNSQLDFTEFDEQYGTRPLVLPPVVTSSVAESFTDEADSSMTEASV

Row | Binder | binding result
1 | Swi1 (natural protein) MDFFNLNNNNNNNNTTTTTTTTNNNNTNNNNTNNNNNPANNTNNNNSTGHSSNTNNNTNNNNTNTGASGVDDFQNFFDPKPFDQNLDSNNNNSNSNNNDNNNSNTVASSTNFTSPTAVVNNAAPANVTGGKAANFIQNQSPQFNSPYDSNNSNTNLNSLSPQAILAKNSIIDSSNLPLQAQQQLYGGNNNNNSTGIANDNVITPHFITNVQSISQNSSSSTPNTNSNSTPNANQQFLPFNNSASNNGNLTSNQLISNYAASNSMDRSSSASNEFVPNTSDNNNNSNNHNMRNNSNNKTSNNNNVTAVPAATPANTNNSTSNANTVFSERAAMFAALQQKQQQRFQALQQQQQQQQNQQQQNQQPQQQQQQQQNPKFLQSQRQQQQRSILQSLNPALQEKISTELNNKQYELFMKSLIENCKKRNMPLQSIPEIGNRKINLFYLYMLVQKFGGADQVTRTQQWSMVAQRLQISDYQQLESIYFRILLPYERHMISQEGIKETQAKRIFLQQFLQELLKKVQQQQQAAALANANNNINSASSAPTPAAPGASVPATAAPGTEAGIVPVSANTPKSLNSNININVNNNNIGQQQVKKPRKQRVKKKTKKELELERKEREDFQKRQQKLLEDQQRQQKLLLETKLRQQYEIELKKLPKVYKRSIVRNYKPLINRLKHYNGYDINYISKIGEKIDSNKPIFLFAPELGAINLHALSMSLQSKNLGEINTALNTLLVTSADSNLKISLVKYPELLDSLAILGMNLLSNLSQNVVPYHRNTSDYYYEDAGSNQYYVTQHDKMVDKIFEKVNNNATLTPNDSNDEKVTILVDSLTGNQLPTPTPTEMEPDLDTECFISMQSTSPAVKQWDLLPEPIRFLPNQFPLKIHRTPYLTSLKKIKDEIDDPFTKINTRGAEDPKVLINDQLSTISMILRNISFSDNNSRIMSRNFYLKRFISDLLWLVLIHPENFTCNRKILNFKKDLVIVLSNISHLLEIASSIDCLLILILVISFGQPKLNPMASSSSFGSESLTFNEFQLQWGKYQTFGVDILAKLFSLEKPNLNYFKSILLNKNTGNNLYDRNSNNNHKDKKLLRRLLNLYNDNNKNNNNRHNLLNDVVSFLFSAIPLQQVLSQSADPSLLIDQFSPVISQSLTSILVIVQKILPLSNEVFEISENNSDSNSNNNGNKDSSFNFNKNLPFVWLSSEENIGSGLLKLSEIILNINNSTSKNTLLQQQNYSKVLLPSINISCVQLIKCLVEKSICFENCLNNDPEILKKIASIPNLFPTDLEIFQLFTNPSVDIQIINQYQLLYNLKNDILTNLE | binds
2 | Arp7 (natural protein) MTLNRKCVVIHNGSHRTVAGFSNVELPQCIIPSSYIKRTDEGGEAEFIFGTYNMIDAAAEKRNGDEVYTLVDSQGLPYNWDALEMQWRYLYDTQLKVSPEELPLVITMPATNGKPDMAILERYYELAFDKLNVPVFQIVIEPLAIALSMGKSSAFVIDIGASGCNVTPIIDGIVVKNAVVRSKFGGDFLDFQVHERLAPLIKEENDMENMADEQKRSTDVWYEASTWIQQFKSTMLQVSEKDLFELERYYKEQADIYAKQQEQLKQMDQQLQYTALTGSPNNPLVQKKNFLFKPLNKTLTLDLKECYQFAEYLFKPQLISDKFSPEDGLGPLMAKSVKKAGASINSMKANTSTNPNGLGTSHINTNVGDNNSTASSSNISPEQVYSLLLTNVIITGSTSLIEGMEQRIIKELSIRFPQYKLTTFANQVMMDRKIQGWLGALTMANLPSWSLGKWYSKEDYETLKRDRKQSQATNATN | binds
3 | Arp9 (natural protein) MAPFRQDSILIIYPRSQTTLVQFGLNEETFTVPELEIPTQIYRTTRQDGSYTYHSTNKDNKAELIKPIQNGEIIDISAFTQFLRLIFVSILSDRANKNQDAFEAELSNIPLLLITHHSWSQSDLEIITQYVFESLEINNLIQLPASLAATYSMISLQNCCIIDVGTHHTDIIPIVDYAQLDHLVSSIPMGGQSINDSLKKLLPQWDDDQIESLKKSPIFEVLSDDAKKLSSFDFGNENEDEDEGTLNVAEIITSGRDTREVLEERERGQKVKNVKNSDLEFNTFWDEKGNEIKVGKQRFQGCNNLIKNISNRVGLTLDNIDDINKAKAVWENIIIVGGTTSISGFKEALLGQLLKDHLIIEPEEEKSKREEEAKSVLPAATKKKSKFMTNSTAFVPTIEYVQCPTVIKLAKYPDYFPEWKKSGYSEIIFLGAQIVSKQIFTHPKDTFYITREKYNMKGPAALWDVQF | binds
4 | Rtt102 (natural protein) MDPQTLITKANKVSYYGNPTSKESWRYDWYQPSKVSSNVQQPQQQLGDMENNLEKYPFRYKTWLRNQEDEKNLQRESCEDILDLKEFDRRILKKSLMTSHTKGDTSKATGAPSANQGDEALSVDDIRGAVGNSEAIPGLSAGVNNDNTKESKDVKMN | binds
